The chains are these.
T1: human CD93 on cells (CD93-transfected HEK293T cells; endogenous on HUVEC cells) (human, UniProt Q9NPY3 22-652)
T1 construct: in the co-immunoprecipitation it comes from HUVEC lysate; also called CD93 transfectant; CD93+ 293 cells
T1 sequence: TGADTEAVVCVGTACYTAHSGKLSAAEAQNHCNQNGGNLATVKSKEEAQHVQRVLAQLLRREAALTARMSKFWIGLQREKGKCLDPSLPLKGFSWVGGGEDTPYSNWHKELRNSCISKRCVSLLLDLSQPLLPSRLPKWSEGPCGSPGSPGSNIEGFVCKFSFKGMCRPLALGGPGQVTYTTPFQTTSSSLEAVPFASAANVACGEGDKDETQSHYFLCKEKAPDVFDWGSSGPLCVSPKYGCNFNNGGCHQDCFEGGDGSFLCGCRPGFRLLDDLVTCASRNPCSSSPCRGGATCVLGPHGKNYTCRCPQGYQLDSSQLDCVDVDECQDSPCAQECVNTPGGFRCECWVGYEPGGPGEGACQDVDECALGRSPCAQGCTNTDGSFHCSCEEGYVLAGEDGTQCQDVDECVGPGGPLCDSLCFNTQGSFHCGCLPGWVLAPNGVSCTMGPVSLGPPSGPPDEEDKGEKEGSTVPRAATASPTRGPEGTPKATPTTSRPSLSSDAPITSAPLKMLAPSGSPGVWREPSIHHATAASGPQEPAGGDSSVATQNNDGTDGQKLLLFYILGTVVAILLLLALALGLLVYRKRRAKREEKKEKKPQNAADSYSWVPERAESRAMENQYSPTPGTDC

T2: IGFBP7 protein (R&D Systems), labelled with a His-Tag Labeling Kit for MST (human, UniProt Q16270 27-282, RED-tris-NTA fluorescent dye bound to the His tag)
T2 construct: Bought; also called human IGFBP7; not shown: His tag implied by the His-Tag Labeling Kit
T2 sequence: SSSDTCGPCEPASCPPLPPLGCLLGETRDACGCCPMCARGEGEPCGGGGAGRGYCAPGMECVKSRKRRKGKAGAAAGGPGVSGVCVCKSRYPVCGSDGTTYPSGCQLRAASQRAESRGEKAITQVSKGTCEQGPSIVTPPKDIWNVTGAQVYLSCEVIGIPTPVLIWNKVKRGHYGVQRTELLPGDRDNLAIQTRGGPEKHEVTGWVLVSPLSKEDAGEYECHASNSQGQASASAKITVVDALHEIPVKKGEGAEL

B1: IGFBP2 (Fc fusion, human, UniProt P18065 36-325, looked up)
fusion chain: AEVLFRCPPCTPERLAACGPPPVAPPAAVAAVAGGARMPCAELVREPGCGCCSVCARLEGEACGVYTPRCGQGLRCYPHPGSELPLQALVMGEGTCEKRRDAEYGASPEQVADNGDDHSEGGLVENHVDSTMNMLGGGGSAGRKPLKSGMKELAVFREKVTEQHRQMGKGGKHHLGLEEPKKLRPPPARTPCQQELDQVLERISTMRLPDERGPLEHLYSLHIPNCDKHGLYNLKQCKMSLNGQRGECWCVNPNTGKLIQGAPTIRGDPECHLFYNEQQEARGVHTQRMQ
notes: member of the group m19; HEK293T supernatant
B2: WISP1 (Fc fusion, human, UniProt O95388 23-367, looked up)
fusion chain: TALSPAPTTMDFTPAPLEDTSSRPQFCKWPCECPPSPPRCPLGVSLITDGCECCKMCAQQLGDNCTEAAICDPHRGLYCDYSGDRPRYAIGVCAQVVGVGCVLDGVRYNNGQSFQPNCKYNCTCIDGAVGCTPLCLRVRPPRLWCPHPRRVSIPGHCCEQWVCEDDAKRPRKTAPRDTGAFDAVGEVEAWHRNCIAYTSPWSPCSTSCGLGVSTRISNVNAQCWPEQESRLCNLRPCDVDIHTLIKAGKKCLAVYQPEASMNFTLAGCISTRSYQPKYCGVCMDNRCCIPYKSKTIDVSFQCPDGLGFSRQVLWINACFCNLSCRNPNDIFADLESYPDFSEIAN
notes: as for B1
B3: KAZALD1 (Fc fusion, human, UniProt Q96I82 31-304, looked up)
fusion chain: RPSPGPDYLRRGWMRLLAEGEGCAPCRPEECAAPRGCLAGRVRDACGCCWECANLEGQLCDLDPSAHFYGHCGEQLECRLDTGGDLSRGEVPEPLCACRSQSPLCGSDGHTYSQICRLQEAARARPDANLTVAHPGPCESGPQIVSHPYDTWNVTGQDVIFGCEVFAYPMASIEWRKDGLDIQLPGDDPHISVQFRGGPQRFEVTGWLQIQAVRPSDEGTYRCLGRNALGQVEAPASLTVLTPDQLNSTGIPQLRSLNLVPEEEAESEENDDYY
notes: as for B1
B4: ESM1 (Fc fusion, human, UniProt Q9NQ30 20-184, looked up)
fusion chain: WSNNYAVDCPQHCDSSECKSSPRCKRTVLDDCGCCRVCAAGRGETCYRTVSGMDGMKCGPGLRCQPSNGEDPFGEEFGICKDCPYGTFGMDCRETCNCQSGICDRGTGKCLKFPFFQYSVTKSSNRFVSLTEHDMASGDGNIVREEVVKENAAGSPVMRKWLNPR
notes: as for B1
B5: IGFBP4 (Fc fusion, human, UniProt P22692 22-258, looked up)
fusion chain: DEAIHCPPCSEEKLARCRPPVGCEELVREPGCGCCATCALGLGMPCGVYTPRCGSGLRCYPPRGVEKPLHTLMHGQGVCMELAEIEAIQESLQPSDKDEGDHPNNSFSPCSAHDRRCLQKHFAKIRDRSTSGGKMKVNGAPREDARPVPQGSCQSELHRALERLAASQSRTHEDLYIIPIPNCDRNGNFHPKQCHPALDGQRGKCWCVDRKTGVKLPGGLEPKGELDCHQLADSFRE
notes: as for B1
B6: IGFBP1 (Fc fusion, human, UniProt P08833 26-259, looked up)
fusion chain: APWQCAPCSAEKLALCPPVSASCSEVTRSAGCGCCPMCALPLGAACGVATARCARGLSCRALPGEQQPLHALTRGQGACVQESDASAPHAAEAGSPESPESTEITEEELLDNFHLMAPSEEDHSILWDAISTYDGSKALHVTNIKKWKEPCRIELYRVVESLAKAQETSGEEISKFYLPNCNKNGFYHSRQCETSMDGEAGLCWCVYPWNGKRIPGSPEIRGDPNCQIYFNVQN
notes: as for B1
B7: CYR61 (Fc fusion, human, UniProt O00622 25-381, looked up)
fusion chain: TCPAACHCPLEAPKCAPGVGLVRDGCGCCKVCAKQLNEDCSKTQPCDHTKGLECNFGASSTALKGICRAQSEGRPCEYNSRIYQNGESFQPNCKHQCTCIDGAVGCIPLCPQELSLPNLGCPNPRLVKVTGQCCEEWVCDEDSIKDPMEDQDGLLGKELGFDASEVELTRNNELIAVGKGSSLKRLPVFGMEPRILYNPLQGQKCIVQTTSWSQCSKTCGTGISTRVTNDNPECRLVKETRICEVRPCGQPVYSSLKKGKKCSKTKKSPEPVRFTYAGCLSVKKYRPKYCGSCVDGRCCTPQLTRTVKMRFRCEDGETFSKNVMMIQSCKCNYNCPHANEAAFPFYRLFNDIHKFRD
notes: as for B1
B8: WISP3 (Fc fusion, human, UniProt O95389 24-354, looked up)
fusion chain: TGPLDTTPEGRPGEVSDAPQRKQFCHWPCKCPQQKPRCPPGVSLVRDGCGCCKICAKQPGEICNEADLCDPHKGLYCDYSVDRPRYETGVCAYLVAVGCEFNQVHYHNGQVFQPNPLFSCLCVSGAIGCTPLFIPKLAGSHCSGAKGGKKSDQSNCSLEPLLQQLSTSYKTMPAYRNLPLIWKKKCLVQATKWTPCSRTCGMGISNRVTNENSNCEMRKEKRLCYIQPCDSNILKTIKIPKGKTCQPTFQLSKAEKFVFSGCSSTQSYKPTFCGICLDKRCCIPNKSKMITIQFDCPNEGSFKWKMLWITSCVCQRNCREPGDIFSELKIL
notes: as for B1
B9: IGFBP6 (Fc fusion, human, UniProt P24592 28-240, looked up)
fusion chain: RCPGCGQGVQAGCPGGCVEEEDGGSPAEGCAEAEGCLRREGQECGVYTPNCAPGLQCHPPKDDEAPLRALLLGRGRCLPARAPAVAEENPKESKPQAGTARPQDVNRRDQQRNPGTSTTPSQPNSAGVQDTEMGPCRRHLDSVLQQLQTEVYRGAQTLYVPNCDHRGFYRKRQCRSSQGQRRGPCWCVDRMGKSLPGSPDGNGSSSCPTGSSG
notes: as for B1
B10: NOV (Fc fusion, not shown: a dimerising Fc or GST; small tags and cut ends)
chain: TQRCPPQCPGRCPATPPTCAPGVRAVLDGCSCCLVCARQRGESCSDLEPCDESSGLYCDRSADPSNQTGICTAVEGDNCVFDGVIYRSGEKFQPSCKFQCTCRDGQIGCVPRCQLDVLLPEPNCPAPRKVEVPGECCEKWICGPDEEDSLGGLTLAAYRPEATLGVEVSDSSVNCIEQTTEWTACSKSCGMGFSTRVTNRNRQCEMLKQTRLCMVRPCEQEPEQPTDKKGKKCLRTKKSLKAIHLQFKNCTSLHTYKPRFCGVCSDGRCCTPHNTKTIQAEFQCSPGQIVKKPVMVIGTCTCHTNCPKNNEAFLQELELKTTRGKM
notes: as for B1
B11: CTGF (Fc fusion, human, UniProt P29279 27-349, looked up)
fusion chain: QNCSGPCRCPDEPAPRCPAGVSLVLDGCGCCRVCAKQLGELCTERDPCDPHKGLFCHFGSPANRKIGVCTAKDGAPCIFGGTVYRSGESFQSSCKYQCTCLDGAVGCMPLCSMDVRLPSPDCPFPRRVKLPGKCCEEWVCDEPKDQTVVGPALAAYRLEDTFGPDPTMIRANCLVQTTEWSACSKTCGMGISTRVTNDNASCRLEKQSRLCMVRPCEADLEENIKKGKKCIRTPKISKPIKFELSGCTSMKTYRAKFCGVCTDGRCCTPHRTTTLPVEFKCPDGEVMKKNMMFIKTCACHYNCPGDNDIFESLYYRKMYGDMA
notes: as for B1
B12: Human IGFBP7 (Fc-tag), Sino Biological (Fc fusion)
chain: T2 sequence
notes: Bought; also called IGFBP7-Ig; recombinant IGFBP7 protein; not shown: Fc tag of the bought fusion protein
B13: IGFBP7 fused to a C-terminal Ig (made in transfected HEK293T cells, used as supernatant) (Fc fusion, not shown: a dimerising Fc or GST; small tags and cut ends)
chain: T2 sequence
notes: also called Fc tagged fusion protein of IGFBP7
B14: recombinant human CD93 protein (R&D Systems) (receptor)
chain: ADTEAVVCVGTACYTAHSGKLSAAEAQNHCNQNGGNLATVKSKEEAQHVQRVLAQLLRREAALTARMSKFWIGLQREKGKCLDPSLPLKGFSWVGGGEDTPYSNWHKELRNSCISKRCVSLLLDLSQPLLPSRLPKWSEGPCGSPGSPGSNIEGFVCKFSFKGMCRPLALGGPGQVTYTTPFQTTSSSLEAVPFASAANVACGEGDKDETQSHYFLCKEKAPDVFDWGSSGPLCVSPKYGCNFNNGGCHQDCFEGGDGSFLCGCRPGFRLLDDLVTCASRNPCSSSPCRGGATCVLGPHGKNYTCRCPQGYQLDSSQLDCVDVDECQDSPCAQECVNTPGGFRCECWVGYEPGGPGEGACQDVDECALGRSPCAQGCTNTDGSFHCSCEEGYVLAGEDGTQCQDVDECVGPGGPLCDSLCFNTQGSFHCGCLPGWVLAPNGVSCTMGPVSLGPPSGPPDEEDKGEKEGSTVPRAATASPTRGPEGTPKATPTTSRPSLSSDAPITSAPLKMLAPSGSPGVWREPSIHHATAASGPQEPAGGDSSVATQNNDGTDGQK
notes: Bought soluble protein

The first assay addresses T1, human CD93 on cells (CD93-transfected …). The experiment in a line: flow cytometry, HEK293T supernatant of the Fc-tagged protein on CD93 transfectant; binding index = MFI of CD93 transfectant / MFI of control cells. On the technique in general: A flow cytometer gives signals particle by particle.
As for B1, the binding result is “no binding”.

B2: the binding result is “no binding”.

On to B3, for which the binding result is reported as “no binding”.

On to B4, for which the binding result is given as “no binding”.

Consider B5, for which the binding result was “no binding”.

As to B6, the binding result is “no binding”.

B7: the binding result was “no binding”.

On to B8, for which the binding result is “no binding”.

Consider B9, for which the binding result is on record as “no binding”.

As to B10, the binding result was “no binding”.

B11: the binding result is listed as “no binding”.

A further assay shares this target. The assay is described as follows: flow cytometry, IGFBP7-Ig on CD93-transduced or control HEK293T cells.
B12: the binding result is on record as “binds”.

The next assay has the same target. The assay is described as follows: flow cytometry, HEK293T supernatant on CD93 transfectant; binding index = MFI of CD93 transfectant / MFI of control.
With B13, the binding result is “binds”.

Another assay concerns the target T2, IGFBP7 protein (R&D Systems), labelled …. The experiment in a line: microscale thermophoresis (MST), CD93 titrated against 10 nM labelled IGFBP7. On the technique in general: In MST a laser heats a spot of the sample, and binding alters the fluorescence response.
On to B14, for which the “EC50 (read off the curve)” value was about 50 nM.

Broadly, the EC50 (read off the curve) is the concentration at which the effect is half-maximal. Lower therefore signals an effect from little substance.
